Experiment: label from the status in PepcDB records

| Sequence | protein production |
| --- | --- |
| MFVDRIVLSFRGAGLERANTCLRKGQRLRKACSHVFRPLCSSDLPVNLPTDLETKRVMKPPLAERESIWSYPRPPRVEPNTRHLRVVHNQVTIAETRRGYRVLEYSHPPSYYIPLDDIDLQYVMVSSKVRSTFCEFKGEATYYDVEVGWEVSEGAAWSYDFPTRAYRMLKDHIAFYPAKVDACWVDEYRVRPEPRSFYGGWVTPLVKGVYPEEDVEDDEDSSGGDGKDSATQ | not failed |
| MFVFIPLFTIFILLAGGYFAKRIGVLKQKQARTFLDFAIIFALPCLIFDKAYHLNFDFSLIIFIFIGLFSCILAAFFAILIGKVFHFSKVTLVSMFLLSCFGNTIFVGMPIVAGIFNDPQFSAEVIFYDALATTLPISLFGPFILSLGNGEKVSLLANVKKILSFPPFLALLFGFLCKLITLPEFIFSPIRLFGASATPVALFAIGLGLGFMAIKTSYKPTIVVIFTKMILAPLFFVFCLKIFNLELKDSTIVAIIESAAPTMTLAGAMVMKAKLDSNLAVSAVAFGVLFAFVSMPILIWTLL | failed |
| MFVLKNFKIVFSYFPIVLQYILNVALICLGVVLSVFLMKEVIQFMQELKLDGNESSYHLIDSIVVFFLYFEFIVMIIKYFQMNFHFPLRYFIYIGITAIVRLIIIDHDSPLDLLLYACAIFVLISALFIANSKMMRWDLE | failed |
| MFVVAVANTKGGCGKTTLATHLAASFACRGYATGLADLDRQKSALGWLKRRPEGAAPIQGINLAREEDIPEGIERLVVDAAAAMDKDVVKDIVRRADLVVVPVLPGVFDEDGTARFVGHLESLKSIRKNRRDVAFVANRVRLNTRALTRLGGFLEELSFPVIARLRDTQHYTAAAAEGLSLFDLPGGRAADYRAEWTPLLDFIEIRVRGLEHHHHHH | not failed |
| MFYPDPFDVIIIGGGHAGTEAAMAAARMGQQTLLLTHNIDTLGQMSCNPAIGGIGKGHLVKEVDALGGLMAKAIDQAGIQFRILNASKGPAVRATRAQADRVLYRQAVRTALENQPNLMIFQQAVEDLIVENDRVVGAVTQMGLKFRAKAVVLTVGTFLDGKIHIGLDNYSGGRAGDPPSIPLSRRLRELPLRVGRLKTGTPPRIDARTIDFSVLAQQHGDNPMPVFSFMGNASQHPQQVPCYITHTNEKTHDVIRSNLDRSPMYAGVIEGVGPRYCPSIEDKVMRFADRNQHQIFLEPEGLTSNEIYPNGISTSLPFDVQMQIVRSMQGMENAKIVRPGYAIEYDFFDPRDLKPTLESKFIQGLFFAGQINGTTGYEEAAAQGLLAGLNAARLSDDKEGWAPARSQAYLGVLVDDLCTLGTKEPYRMFTSRAEYRLMLREDNADLRLTEIGRELGLVDDERWARFNEKLENIERERQRLKSTWVTPSAEAAAEVNAHLTAPLSREASGEDLLRRPEMTYEKLTTLTPFAPALTDEQAAEQVEIQVKYEGYIARQQDEIEKQLRNENTLLPATLDYRQVSGLSNEVIAKLNDHKPASIGQASRISGVTPAAISILLVWLKKQGMLRRSA | not failed |
| MFYRLLFASLWYILPAYVANASACIFGGGTPVDLGKNFIDGRRLIGNGVTYRGCIFGILCGTLVGLIQGILVDFNIFNSLDFYGTVLDHVILAFFLSVGAIVGDAVGSFIKRRLNIERGKPAPLLDQLDFVIGALAFGYIVAPIPYEMIIIICLFTVFVHLLGNIIAYKLGIKDVWW | failed |
| MGAAKNIWALANAEDAANDAEQIPYSSFVVDTSLPLPLMIPRIIELCKDLFKNWGELDDSLFSVERVSGGITNLLLKVSVKEDTNKEVSVTVRLYGPNTEYVINREREILAIKYLSAAGFGAKLLGGFGNGMVQSFINARTLEPSDMREPKIAAQIARELGKFHKVDIPGSKEPQLWVDILKFYEKASTLTFEEPDKQKLFETISFEELHKEIIELREFTGLLNAPVVFAHNDLLSGNFMLNDEEEKLYLIDFEYGSYNYRGFDIGNHFNEYAGYDCDYSLYPSKEEQYHFIKHYLQPDKPDEVSIAEVESVFVETDAYKLASHLYWAIWAIIQARMSPIEFEYLGYFFLRYNEYKKQKPLTFSLVTSHLSASL | failed |
| MGAAVGTSEAIQMVNQRQAVWVDVRPTEQFQAGHIAQARSLPAADLEKKAGALPKNKPLIVVCEQGRDAARIAARLRSQGFAEVSVLEGGMRAWFAAGLPVTQKGLEHHHHHH | failed |
| MGAFNRRNKRVNNGNVTHLRPFRRNQLRNDNAYDPDEHDLEYVRPRRRGIYLLPNAFTTAALFAGFFAIVQAMNMRFDVAAIAIFAAMVLDGMDGRVARITNTQSAFGEQYDSLSDMTSFGVAPALVMYEWILHDLGKWGWIAAFVYCTCAALRLARFNANIGVVDKRFFQGLPSPAAAALVAGFVWLAIDNKLPVKELWMPWVAFGITLYAGLSMVSNAPFYSGKALDVRYRVPFGMMVLVLVLFVVVSSDPPVALFGLFVAYAISGYLLWAWRTLHGQRGGVDKSRAPGNGSGGN | failed |
| MGAGQTPHPQLIWPALLKQQGCNELLPLRTNDDWQRFCADSKHLLQYGDKLVDSNFHCFVLEEDAHWHPAAPLPPEGLNDLIRAHCATLGHCCTSKMHLHSVMDAIDFLNALEG | not failed |
| MGALAAAMFDLRSRRENPGPESDPRKGRDRQRPSDARETKEDLKSQPDLRQVKEKVRNDEIAIQSESLVEYKERNQRRDDVLQVPELYDVLLPKLRVRIVFGSSFKPRKSTGRQWSMTQSWLKIKMNTNENEV | failed |
| MGAMHVLTLDLAPVTPKDAPLLHRVFHLSPSYFALIGMELPTLEDVVRDLQTLEVDPRRRAFLLFLGQEPVGYLDAKLGYPEAEDATLSLLLIREDHQGRGLGRQALERFAAGLDGVRRLYAVVYGHNPKAKAFFQAQGFRYVKDGGPTLTWYVRPL | not failed |
| MGANEDQEMELEALRSIYEGDNSFRELSPVSFQYRIGEDGDPKAFLIEVSWTETYPQTAPVISMNAFFNNTISSAVKQSILAKLQEAVEVNLGTAMTYTLFEYAKDHKEQFMENHHPGNSATPVANIISVETPTTAPSSKKKEKKEQLSKAQKRKLADKTDHKGELPRGWNWVDVVKHLSKTGSKDDE | failed |
| MGAQKKPAAAKVREDSEDLSRQRLQAILLADSFTTQFRSITLERPKVLLPIVNIPMIDYTLAWLESAGIEEVFVFCCAHSSQIIDYLKKSEWYTRPNPNLLVRTIVSHNSTSVGDALRYIYEQQTETSQIQGDFVLVSGDTVSNMPLADLIQQHRDRKKKDEKAIMTMVFKKQSRLGIGSDQLFVAVDPLTKQLLHYEECNSRGGDFCLDKSLLDSTVLCSDMQDCYIDICSPEVLSLFEDNFDYQHMRRHFVNGLLVDDIMGYKIFTHEIQSSCYAARIDNLRSYDTVSKDIIQRWTYPYVPNIDFSGNRPVKLGRRGIYRASDAVQSHTADVGASTVIGYGTKIGNGGKIYNSVIGNGCCIGSNVVIQGSYIWNNVTIEDGCEIRNAIVCDGVKVRAGAVLQPGVVLSFSVVVGRDFVVPAYSKVSLLQQPTTEDSDEELEYADSSSGTADHSSGLNNLQIESKASELGPDGAGYIWEICDSAHDEEWKHSVVPIPMDKLADITGAMDDDDIEDDIVVPPSGELKSDTDIINTDANDSYGDFEREVEEEFLSAVEKDNKADIVIPLINSHRLAYNMDSADCAGAVFYSMMRLAVKSPHNSATELYRNAMGVITKWKGVLGFYLKQTDAQIEVIMKFEEMCQESEELSPLFAKLLPFLYDKDVVQEDAILRWGEEKAGADDCDKVYLNKCESFIKWLKEASEEEEEDS | failed |
| MGARTPPCGREIVRVLPSERLISGNGEGAPLPDSHSELPPVIRRTEFVAYALAGLLLIAVIGVLYFAKAFFLPVVMAVVAGTMLSPAASFLERRGVPRALGAVLIVTAVTTVVAFVVALIAVPAMEWSSRLPELGAQLKEKLHVFDRPLALWKELQTMVGGSEGLPSLPLPKAEWVQPTLEFLSPTFAEFLLFFATLILFIASWRDLRRALIMNFGDRDARLRTLRILNEIEVHLGNYLLTVTVINIGVGVATGIICAITGMPNPAGLGALAAALNFIPIIGPIAMFIVLIVVGLVAFPTLGGGLMAGLAFGGITFLEGHFVTPTIIGRRLSLNALAVFIALAFWTWLWGPMGAFLSSPLLIVGLILKEHLLPENSPQLPQA | failed |
| MGASTFWIITIVFCIAIYFLDKFLRKKLNMPKGGFWGYKKHVNSLHKKLEIGLLFIYLITSFIFIFKFESINIAYVIFTYLGGTLILRALMEWKYDRESKEYIFSVIGVFTFIFMTSILFYFFPPAV | failed |
| MGCVFTNFRLRRSQTPKAKTPMIFEKQDYQQECIYNIITLLDGFDFKRHDALNLKDCLNQFHAACEIPVKNVSGKLNVDVLMETGTGKTFTYLNLIFALHKAYGQNKFIIFVPRKAILESVKQNIRLTKDYFYLEFKRHLKTYTYEGVKSPSNIINHYIKNQDELSVLLLTNSAIDKEGNILNKNSENLFNTKSIFENIADLKPISIIDEPHLLKGEAFGKYFGKIGALYFRFGATFAKEKEHALSNVAFCLDSISAFRNYLVKQIRIHSVMQDAQSPFLLNADSKSAKIAFYKAGILKQITLSKGEDLGKINASFNGVSLVKTAKDKAYLSNGATLEKASYKLAQDEISALLEKAIDLHFEKEAFLFDQNIKALSLFFIPKIEDFRQIDNKGTPFIKTEFERLYKLKRASILARENLSPSYKEYLKRDFDESGNLRVHQGYFSGDSVALNKGKKESKKEDIEANDIKMILSEKEKLLSFQTPLRFIFSVWALQEGWDNPNIFTLIKLANSTSETSRHQQVGRGLRIAINQEGKRVTHGFLKGNDNAFYKINYLDMLVSGEEVGFIEGLQKEIEASSFIGGGNALDREDLAKLGLNEREINKLFVELENSNALEFDETNNAYKIIAPICETMQNNEERIKDFLSDEEYHAVLSAFKMAENPTNKRDQIINANQPQEKVKIRQNLAKEFKELWQTINAQSQLSYQNIQKTKLIESIAKAFNESHVSAEVIKFESKRYDPQTNRIITEQSSTLKIRDYANALQKEINALLLDFAKDERLPLKFTLELYNALNKEHFTNSPKKAFKLLKGIIKDKLHENLLSCVSYGFCQNAFSNTAFDKTDPLYCEDGSPKNEIEKHKIGKYKSAQTPSPNYLYETIIYDSKIEEEVSEEGVQTLEGKSIEVFAKLPKFKIPTPYKNYEPDFAYLLKDEKGAKIFFVCETKGYEKESDIPPDEKRKIEYAKKFFETLSQNLKNAKKEIRVVFATRINKQDLFNTLKNALKETP | failed |
| MGDEHSLIPKQIGVVPSAGFLNVEVFERPCPEPNIQPWDIPYVHYPKPKTYSSSNGEIFSVKDRRANVSTIFETLDKVYNLDWLSSASKNECTSAVGLKWMLNQAEILARYKPLINTSLLIPDLKQVQEMTSKALAYFNTTRHIFLYYEDVVKNRTKLDDVQEFLKVPKLDLKSRQVKIHHGPLSQHVQNWEEVQKTLKGTGFENFLLEDYRR | failed |
| MGDFIGSVWWMIVSLGVLVTFHEFGHFWVARRCGVKVLRFSVGFGKPLWMRRDRHGTEFVVAAIPLGGYVKMLDEREGDVHPAEQDQAFNRKTVWQRIAIVAAGPIANLLLCMAMLWAMFVVGKQDYSATVGRADGLAAEAGLTPGERIVRIDGRSVSSWSDASMQLTTAAMDRRDVRVLTASDTASSSEHTLRLSQLPVGFDERRVAALAGIGWQFMLQPPVIAEVVKGSVADGLLKPGDRIVAIDGQPIRSAEDIIPQVQALGAHGGPGMIEVARGEDRLALEIAPRKSPQGQWMIGVRPAAAPAPEYDSRQQYGLFAAVPAAIRETGRMTADSLGMMKRMLTGQASVKNISGPVTIARAANASAERGLDWFLYFLGLLSLSLAIINLMPIPILDGGHLLYYLIELIKGSPISERAMIAGQYVGLAALAGLMGLAFYNDILGLVPR | failed |
| MGDSKGRVASAAVSLAEFLESCAGKWFSQRTSYRLGATQDWHQSDQTTLFVDFLAADAPELQALIAEQGLAIAALQSRWEATPQQPASTSLLVFLAEGDRLVHQRGDRCWQGRYQFEGDHRGLTLTTEQPDGQVEERFWFAHPNLRLRTSLIRDRTGLSRSSFYSEIRLGVKPPEPPAEV | failed |

— a protein production outcome set (Wang et al. 2014)
